Numbering of substitutions follows the chain as printed. In names and notes the source's numbering stands.
T1: human FcγRIIa, allotype 167R (human, UniProt P12318 34-217, limits assumed)
T1 construct: also called hFcgRIIa_167R
T1 sequence (looked up): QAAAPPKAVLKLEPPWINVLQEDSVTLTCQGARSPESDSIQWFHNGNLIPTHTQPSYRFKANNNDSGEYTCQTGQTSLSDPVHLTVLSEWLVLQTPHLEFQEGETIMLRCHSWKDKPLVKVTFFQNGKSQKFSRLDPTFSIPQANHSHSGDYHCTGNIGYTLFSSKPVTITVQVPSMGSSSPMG

B1: Sample No. 117, IgG1 antibody with E356K/K392D/D399K/K409D (heavy chain SEQ ID NO: 56, light chain SEQ ID NO: 61) (antibody)
heavy: QVQLQESGPGLVRPSQTLSLTCTVSGYSITSDHAWSWVRQPPGRGLEWIGYISYSGITTYNPSLKSRVTMLRDTSKNQFSLRLSSVTAADTAVYYCARSLARTTAMDYWGQGSLVTVSSASTKGPSVFPLAPSSKSTSGGTAALGCLVKDYFPEPVTVSWNSGALTSGVHTFPAVLQSSGLYSLSSVVTVPSSSLGTQTYICNVNHKPSNTKVDKRVEPKSCDKTHTCPPCPAPELLGGPSVFLFPPKPKDTLMISRTPEVTCVVVDVSHEDPEVKFNWYVDGVEVHNAKTKPREEQYNSTYRVVSVLTVLHQDWLNGKEYKCKVSNKALPAPIEKTISKAKGQPREPQVYTLPPSRKEMTKNQVSLTCLVKGFYPSDIAVEWESNGQPENNYDTTPPVLKSDGSFFLYSDLTVDKSRWQQGNVFSCSVMHEALHNHYTQKSLSLSP
light: not shown
B2: Sample No. 121, IgG1 antibody with T350V/L351Y/T366L/K392L/T394W/F405A/Y407V (heavy chain SEQ ID NO: 60, light chain SEQ ID NO: 61) (antibody)
heavy: B1 heavy with T352V, L353Y, K358E, T368L, D394L, T396W, K401D, F407A, Y409V, D411K
light: not shown
B3: Sample No. 87, IgG1 antibody with T366W/L368A/Y407V (heavy chain SEQ ID NO: 26, light chain SEQ ID NO: 61) (antibody)
heavy: B1 heavy with K358E, T368W, L370A, D394K, K401D, Y409V, D411K
light: not shown
B4: Sample No. 112, IgG1 antibody with Y349C/E357C/K392D/D399K (heavy chain SEQ ID NO: 51, light chain SEQ ID NO: 61) (antibody)
heavy: B1 heavy with Y351C, K358E, E359C, D411K
light: not shown
B5: Sample No. 100, IgG1 antibody with Q347E/S354Y/T366Y/Y407T (heavy chain SEQ ID NO: 39, light chain SEQ ID NO: 61) (antibody)
heavy: B1 heavy with Q349E, S356Y, K358E, T368Y, D394K, K401D, Y409T, D411K
light: not shown
B6: Sample No. 119, IgG1 antibody with E345R/K360E/D399M/Y407A/K409V (heavy chain SEQ ID NO: 58, light chain SEQ ID NO: 61) (antibody)
heavy: B1 heavy with E347R, K358E, K362E, D394K, K401M, Y409A, D411V
light: not shown
B7: Sample No. 97, IgG1 antibody with E356K/D399K/K409E/K439E (heavy chain SEQ ID NO: 36, light chain SEQ ID NO: 61) (antibody)
heavy: B1 heavy with D394K, D411E, K441E
light: not shown
B8: Sample No. 116, IgG1 antibody with E345R/Q347R/K360D/T366V/D399M/Y407A/K409V (heavy chain SEQ ID NO: 55, light chain SEQ ID NO: 61) (antibody)
heavy: B1 heavy with E347R, Q349R, K358E, K362D, T368V, D394K, K401M, Y409A, D411V
light: not shown
B9: Sample No. 111, IgG1 antibody with K392D/D399K/K409D (heavy chain SEQ ID NO: 50, light chain SEQ ID NO: 61) (antibody)
heavy: B1 heavy with K358E
light: not shown
B10: Sample No. 92, IgG1 antibody with Q347R/K360E/D399V/F405T/K409W (heavy chain SEQ ID NO: 31, light chain SEQ ID NO: 61) (antibody)
heavy: B1 heavy with Q349R, K358E, K362E, D394K, K401V, F407T, D411W
light: not shown
B11: Sample No. 109, IgG1 antibody with E356K/K392D/D399K/K439E (heavy chain SEQ ID NO: 48, light chain SEQ ID NO: 61) (antibody)
heavy: B1 heavy with D411K, K441E
light: not shown
B12: Sample No. 102, IgG1 antibody with K392L/T394W/F405A/Y407V (heavy chain SEQ ID NO: 41, light chain SEQ ID NO: 61) (antibody)
heavy: B1 heavy with K358E, D394L, T396W, K401D, F407A, Y409V, D411K
light: not shown
B13: Sample No. 87 (antibody, human IgG1, kappa)
heavy: B1 heavy with K358E, T368W, L370A, D394K, K401D, Y409V, D411K
light: not shown
notes: also called T366W/L368A/Y407V
B14: Sample No. 92 (antibody, human IgG1, kappa)
heavy: B1 heavy with Q349R, K358E, K362E, D394K, K401V, F407T, D411W
light: not shown
notes: also called Q347R/K360E/D399V/F405T/K409W
B15: Sample No. 97 (antibody, human IgG1, kappa)
heavy: B1 heavy with D394K, D411E, K441E
light: not shown
notes: also called E356K/D399K/K409E/K439E
B16: Sample No. 109 (antibody, human IgG1, kappa)
heavy: B1 heavy with D411K, K441E
light: not shown
notes: also called E356K/K392D/D399K/K439E
B17: Sample No. 100 (antibody, human IgG1, kappa)
heavy: B1 heavy with Q349E, S356Y, K358E, T368Y, D394K, K401D, Y409T, D411K
light: not shown
notes: also called Q347E/S354Y/T366Y/Y407T
B18: Sample No. 102 (antibody, human IgG1, kappa)
heavy: B1 heavy with K358E, D394L, T396W, K401D, F407A, Y409V, D411K
light: not shown
notes: also called K392L/T394W/F405A/Y407V

target: T2, human neonatal Fc receptor (FcRn) (human, UniProt P55899 24-290); experiment: SPR (Biacore T200), antibody captured on Protein L, human FcRn as analyte, pH 6.0, 25 C, steady-state model
T2 construct: also called human FcRn

Kd [nM]	Binder
1590	B1
1730	B2
1730	B3
1570	B4
1760	B5
1610	B6
1740	B7
1780	B8
1530	B9
1860	B10
1690	B11
1690	B12

target: T3, human FcγRIa (human, UniProt P12314 16-292, limits assumed); experiment: SPR, Biacore T200, pH 7.4; antibody captured on Protein L, FcγR as analyte
T3 construct: also called hFcgRIa

binding result	Binder
binds	B13
binds	B14
binds	B15
binds	B16
binds	B17
binds	B18

target: T1, human FcγRIIa, allotype 167R; experiment: as above

binding result	Binder
binds	B13
binds	B14
binds	B15
binds	B16
binds	B17
binds	B18

target: T4, human FcγRIIIa, allotype 176F (human, UniProt P08637 17-208, limits assumed); experiment: as above
T4 construct: also called hFcgRIIIa_176F

binding result	Binder
binds	B13
binds	B14
binds	B15
binds	B16
binds	B17
binds	B18

target: T5, human FcγRIIIa, allotype 176V (human, UniProt P08637 17-208, limits assumed); experiment: as above
T5 construct: also called hFcgRIIIa_176V

binding result	Binder
binds	B13
binds	B14
binds	B15
binds	B16
binds	B17
binds	B18

— patent publication US20260217835A1 (published 2026)
